Key:
Settings in all cases: both partners purified
[1] = target: T1, Avi-tagged, biotinylated h14-3-3ß_(nY130) (Homo sapiens, UniProt P31946, 3-nitrotyrosine at 130; biotin on the N-terminal Avi tag); test: BLI; Nb-G5 (C115S) against nitrated and WT h14-3-3β; conditions of this experiment not told
T1 construct: human 14-3-3 beta with 3-nitrotyrosine in place of Y130, from a pBAD-AVI-14-3-3-His plasmid; also called 14-3-3β_(nY130); 14-3-3_(nY130); source: E. coli BL21ai with genetic code expansion, co-expressed with GST-BirA, purified (TALON); not shown: Avi tag, N-terminal, kept

calmodulin WT = calmodulin WT (species ; human CALM1 entry, …, UniProt P0DP23); test: BLI; CaM forms on sensors (kind of sensor not told), Nb-G5 in solution (300 nM in Figure 3C); 0.05% Tween; local fits
[2] = target: T2, h14-3-3ß_(nY130), His-tagged (Homo sapiens, UniProt P31946, 3-nitrotyrosine at 130); test: far-Western, overlay or dot blot; 14-3-3 targets (0.5-5 µg) dotted on PVDF, probed with Nb-G5 diluted 1:3,000 in TBS at room temperature, detected with anti-llama HRP
T2 construct: human 14-3-3 beta with 3-nitrotyrosine in place of Y130 (amber suppression); Held on nickel-coated ELISA plates; also called 14-3-3β nitroY130; source: E. coli BL21ai with genetic code expansion, purified (TALON)

[3] = target: T3, h14-3-3ß_(nY213), His-tagged (Homo sapiens, UniProt P31946, 3-nitrotyrosine at 213); test: as above
T3 construct: human 14-3-3 beta with 3-nitrotyrosine in place of Y213 (amber suppression); also called nitrated human 14-3-3ß isoform nY213; source: E. coli BL21ai with genetic code expansion, purified (TALON)
T3 sequence (P31946 whole entry, canonical isoform): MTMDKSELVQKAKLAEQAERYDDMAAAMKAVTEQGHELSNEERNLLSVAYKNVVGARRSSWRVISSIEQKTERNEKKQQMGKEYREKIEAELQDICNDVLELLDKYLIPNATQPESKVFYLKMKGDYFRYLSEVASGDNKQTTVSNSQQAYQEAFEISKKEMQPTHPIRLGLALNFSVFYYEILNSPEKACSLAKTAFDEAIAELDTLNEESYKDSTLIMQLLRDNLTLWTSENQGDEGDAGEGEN

T1 sequence (P31946 whole entry): as the sequence (P31946 whole entry, canonical isoform) above
T2 sequence (P31946 whole entry): as the sequence (P31946 whole entry, canonical isoform) above

Row | Binder | fold decrease of binding against Nb-G5 [1] | binding result (calmodulin WT) | binding result [2] | binding result [3]
1 | Nb-G5 (C115S) (VHH, also called C115S mutant of Nb-G5) VHH: QVQLQESGGGLVQPGGSLRLSCAASKNIANFDSMAWYRRSPGKERDLVARLYSDGGTNYEDSVKGRFNISTDIEKNTVYLQMNNLKLEDTARYYCRADLGLFDTSEFPGQGTQVTVSS | 6 fold |  |  | 
2 | Nb-G5 (VHH, alpaca nanobody from phage display; The methods describe two cleavable tags for nanobodies (His6-SUMO cut by ULP1, His-bdNEDD8 cut by bdNEDP1); also called anti-nitroTyr Nb; source: E. coli, purified (TALON, tag cleaved, Superdex 200 SEC)) VHH: QVQLQESGGGLVQPGGSLRLSCAASKNIANFDSMAWYRRSPGKERDLVARLYSDGGTNYEDSVKGRFNISTDIEKNTVYLQMNNLKLEDTARYYCRADLGLFDTCEFPGQGTQVTVSS |  | no binding (tested: 300 nM) | binds | binds
